For data set [1], the target named is T1, Methanothermobacter thermautotrophicus non-discriminating glutamyl-tRNA synthetase (Methanothermobacter thermautotrophicus), O26157.
T1 chain: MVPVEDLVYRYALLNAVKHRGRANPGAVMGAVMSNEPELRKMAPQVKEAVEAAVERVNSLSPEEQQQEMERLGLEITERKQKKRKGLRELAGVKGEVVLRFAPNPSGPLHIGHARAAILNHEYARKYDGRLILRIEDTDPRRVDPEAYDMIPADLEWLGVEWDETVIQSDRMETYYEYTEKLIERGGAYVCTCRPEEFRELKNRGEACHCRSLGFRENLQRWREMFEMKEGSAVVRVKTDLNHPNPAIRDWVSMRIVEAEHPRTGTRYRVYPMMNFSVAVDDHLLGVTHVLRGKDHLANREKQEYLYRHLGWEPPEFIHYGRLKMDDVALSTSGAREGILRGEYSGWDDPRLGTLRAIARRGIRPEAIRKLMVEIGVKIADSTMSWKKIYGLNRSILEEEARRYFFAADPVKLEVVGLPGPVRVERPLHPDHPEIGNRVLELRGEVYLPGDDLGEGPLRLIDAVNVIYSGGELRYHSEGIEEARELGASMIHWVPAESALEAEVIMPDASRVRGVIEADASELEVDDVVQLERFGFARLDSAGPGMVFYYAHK
In words: nitrocellulose filter-binding competition. Conditions: remark: other sources report otherwise.

Data set [2] concerns the target T2, Alexa fluor 488-labeled M. thermautotrophicus ND-GluRS (Methanothermobacter thermautotrophicus), O26157.
T2 chain: T1 chain
In words: fluorescence polarisation. Conditions: remark: other sources report otherwise. Background: Fluorescence polarisation rises when a labelled molecule tumbles more slowly, as on binding a larger partner.

Data set [3] concerns the molecule itself. In words: SEC. Background: Size exclusion chromatography separates by hydrodynamic size, large species first.
In data set [4] the target is T3, Methanothermobacter thermautotrophicus glutamyl-tRNA(Gln) amidotransferase GatDE, His6-tagged (Methanothermobacter thermautotrophicus), O26802.
T3 chain 1: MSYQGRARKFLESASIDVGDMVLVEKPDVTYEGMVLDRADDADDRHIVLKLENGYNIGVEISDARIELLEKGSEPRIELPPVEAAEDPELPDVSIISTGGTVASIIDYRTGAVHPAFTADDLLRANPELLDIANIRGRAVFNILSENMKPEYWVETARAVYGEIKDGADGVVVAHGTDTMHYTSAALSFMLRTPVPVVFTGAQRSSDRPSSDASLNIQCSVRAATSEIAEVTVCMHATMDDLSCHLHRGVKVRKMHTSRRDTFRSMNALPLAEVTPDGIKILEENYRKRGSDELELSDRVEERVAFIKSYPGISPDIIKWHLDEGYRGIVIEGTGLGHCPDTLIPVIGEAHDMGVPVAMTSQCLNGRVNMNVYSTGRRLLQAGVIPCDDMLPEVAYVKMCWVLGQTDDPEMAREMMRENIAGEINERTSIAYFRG
T3 chain 2: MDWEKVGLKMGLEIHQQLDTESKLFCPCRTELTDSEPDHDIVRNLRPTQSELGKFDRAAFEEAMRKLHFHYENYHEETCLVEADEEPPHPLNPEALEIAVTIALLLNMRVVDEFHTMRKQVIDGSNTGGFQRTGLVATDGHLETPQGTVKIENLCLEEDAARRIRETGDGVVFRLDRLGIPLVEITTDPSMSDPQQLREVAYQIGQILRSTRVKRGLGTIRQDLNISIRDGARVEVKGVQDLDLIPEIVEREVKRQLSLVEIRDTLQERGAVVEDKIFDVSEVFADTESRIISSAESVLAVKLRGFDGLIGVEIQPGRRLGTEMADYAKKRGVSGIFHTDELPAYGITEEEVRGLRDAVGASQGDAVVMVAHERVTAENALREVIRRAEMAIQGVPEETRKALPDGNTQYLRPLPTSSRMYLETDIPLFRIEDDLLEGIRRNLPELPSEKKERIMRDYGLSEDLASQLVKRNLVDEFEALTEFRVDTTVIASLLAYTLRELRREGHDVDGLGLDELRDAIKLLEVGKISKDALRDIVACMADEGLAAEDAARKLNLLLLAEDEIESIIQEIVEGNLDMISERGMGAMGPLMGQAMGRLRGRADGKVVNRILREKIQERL
Nature of the data set: SEC. Conditions: remark: other sources report otherwise.

B1: Methanothermobacter thermautotrophicus glutamyl-tRNA(Gln) amidotransferase GatDE, His6-tagged, O26802 1-435; O26803 1-619 (complex)
chain 1: T3 chain 1
chain 2: T3 chain 2
One may read the Ki as a measure of affinity in units of concentration, obtained from inhibition or displacement. Low values mean a stronger hold on the target, high ones a looser hold on the target. In general, Kd refers to the free concentration of one partner at which half of the binding sites on the other are occupied at equilibrium, for simple one-to-one binding. Molecule B1 registered a Ki in data set [1] of 33 nM. The same molecule had a Kd in data set [2] of 100 nM.

B2: Methanothermobacter thermautotrophicus glutamyl-tRNA(Gln) amidotransferase GatDE, His6-tagged (complex)
chain 1: T3 chain 1
chain 2: T3 chain 2
A word on the stoichiometry N: it is the number of molecules, sites or subunits per partner or assembly. Turning to B2, the “stoichiometry N” value in data set [3] was determined as 2.

B3: Methanothermobacter thermautotrophicus non-discriminating glutamyl-tRNA synthetase, O26157 1-553 (enzyme)
chain: T1 chain
B3 yielded a stoichiometry N (ND-GluRS monomers per GatDE homodimer) in data set [4] of 2.

The values above are taken from PMC2943598 (Nucleic Acids Research, 2010).
